{"source": "the DeepSol protein solubility set"}
{"experiment": "soluble on expression in E. coli; label from the status in PepcDB or PDB records"}
{"sequence": "MAEETDVIVVGAGLSGLVAATEIADAGKRVIVVDQEGEQSVGGQAFWSFGGLFLVNSPEQRRLGIKDSFDLAMQDWLGTAGFDRDEDHWPRKWAEAYVAFAAGEKRDWLHAMGHRILPVVGWAERGGYDAMGHGNSVPRFHVTWGTGPGIVEPFERRAREAMKSGRLIFKFRHRVDALSITNGTVDGVSGAVLAPDNVERGKSSSRNVVGEFALKAQAVIVASGGIGGNHELVRQNWPKRLGEPPKFMISGVPEHVDGRMIGITEQAGARLINRDRMWHYVEGIQNWSPIWPRHGIRILPGPSSMWFDATGTRLPAPLFPGSDTLGQLKYIMSTGHDYSWFILTQSIIKKEFALSGSEQNPDLTGKSWRMTLRRATNKGAPAPVEAFKSHGVDFIVRDKIDDLVTAMNKLAGSDLLRLEHIKMQIEARDREIANPYVKDAQVMNIHNARRYIGDKLIRTASPHRILDPAHGPLIAVKLNILTRKTLGGFETDLDSRVFGGEGSIIPGLYAVGEAAGFGGGGVHGYRSLEGTFLGGCLFSGRNAGRAAAKAVG", "soluble on expression in E. coli": "not soluble"}
{"sequence": "MGSDKIHHHHHHMIERVINNIEKVIKGKREAIEVVVAALLAKGHVLMEDVPGVGKTMLARALALSLGVDFRRVQFTPDLLPTDLTGLYIYDRKKEDFVFKKGPVFTDVLLADEINRATPRTQSALLEAMAEGQVTVDGVTHRLSERFFVIATQNPIEYEGTFPLPEAQLDRFMICVKMGYPDEEAEIQMLTSQEKEHPISQLEPVMNPDELSELQKKVRNVFVSDEVKKYIVDIASATRNHPSLLLGMSPRGSIALMHFSMALAFMDGRDFTLPDDVKRAAVYVIPHRVIQSAESKLKREKKEDIVREILDRVKVVK", "soluble on expression in E. coli": "not soluble"}
{"sequence": "MAHHHHHHMSVTASAAAAAAAAAASPRPPSSALYTERLFYAVLKQGNPSEARVEALAALALRHLPKSAETWAALRKALMEQSDLDGAPNRTLWYVLDALIKHAPHVFVPLVAPRLLEYTIQQLPWELAGHRGQTLLWFEALVLSWEKVLPQRLYSAVRQHAVQSRSGAELHDLLEAAENSVDDGTSASPADLQQLRDAWDAVQYMGEQEAGKSVFHARLIAAAVVVADEDGNSSLSPSPPVSGLYATPTGHNGRTAGAGTSGADIANTQQQQQQQEEDEYTPDFIEGAKPRELPKLDLPKLKRRREGRRRPREEDLGM", "soluble on expression in E. coli": "soluble"}
{"sequence": "MGLIEDKALVEAALFVAGRPLSLKELSKALGIKSLDYLEKLIELIASEYAERKSAIEIVKVAGDKWVMQVKQEYSQRVIPLMPKPELSTGELKTLALIAYLQPVEQSKIVKLRGSQAYEHIRKLLEMGLIYAEPYERTRLLGTTEKFAELYGFPENDPMLIKETFKKVIHAEYSDLMKKIEESEKKKE", "soluble on expression in E. coli": "soluble"}
{"sequence": "SLSHRTDGSLLFPLSLVHINDIHAHWEEIDTASVTCDPKRDGAAEQCLGGYARTVTIVRQLLQERPNPVYLNIGDNFQGTLWYNIHRWNATAFFLNLLPADAVTVGNHEFDDGIAGVVPFLEAIQSPVLLVNVDNSKEPSFSKFRPSMVLERAGRKIGLIGVILRTTYNMADTGALVFEDEAETVRLEADRLAAEGVDIVVVLSHCGLDVDHIIAANAGPNVDIIVGGHSHSFLYSGQNDKIPMTPASEYPTVVNQPDGHRVLIVQASAYTKLVGDIVLYFDDQGIVQHWEGNPIYLSNDIVPDAEVLEAIAPWKVAIDAVGERTIGATAVDLLKPPCNFGECVLGNLIADSMVEAFVPMAEEGSWTYASIAAIAVGRIRQSLVPGDISFKHLIEVLPFENKLVCLELRGFQLVGLLEHGAELSWDEHRFNAKNLMHVSGLRVVYNVTNPIGHRVLSVEALCQDCSMPSYAPVEMFKMYRVVTVSYLAEGGDGFEIFPRYGRNRVVAPMDDVQAFEEYVKPRSPVAPVLEERIQILN", "soluble on expression in E. coli": "not soluble"}
{"sequence": "MKLALVNRQVILPESGTESFQCHASTLVRLPCGTLVAAWFAGLREGSEDTAIWLSRYEHNIWTTPQRVAAREGEAHWNPVLFYPSDKLWLFYKVGSDVHVWKTWFITSSDRGFTWSTPAPLVNDDILPRGPVKNKLLLASNGAWIAPGSIESPERWRAFVDRSSDEGKHWSISFVPLEPDNAISGTNVALWDGIKKGRLWECCLENLLRWDGVIQPTLWESSPGHIHMLLRSTRGAIFRSDSIDYGATWSVARATSLPNNNSGIDLVSMQDGTLILALNPVNGNWGKRYPLSLIASQDNGESWLPLLDLESDHGEYSYPAIISEGGIVHITYTWNRKNIVYCRLQTVLEHHHHHH", "soluble on expression in E. coli": "not soluble"}
{"sequence": "MSADEFILQQKVHALYSNHRSWLQRWLYRKLGNACDAADLVQDTFISVITGGYADDIREPKPFLATIAGRLVAHRWRRNQLETAYLEALAALPVELMPSPEAHVLALEALLEIDRALDGLPTRVKEAFLLAHLEELSYAQIAERLNVSTSSVKQYLTRANRQCLFALSV", "soluble on expression in E. coli": "not soluble"}
{"sequence": "MTNLNYQQTHFVMSAPDIRHLPSDCGIEVAFAGRSNAGKSSALNTLTNQKSLARTSKTPGRTQLINLFEVVDGKRLVDLPGYGYAEVPEEMKRKWQRALGEYLEKRQSLQGLVVLMDIRHPLKDLDQQMIQWAVESNIQVLVLLTKADKLASGARKAQLNMVREAVLAFNGDVQVEAFSSLKKQGVDKLRQKLDSWFSELAPVEEIQDGE", "soluble on expression in E. coli": "not soluble"}
{"sequence": "MQLDVYGYVVETLYLAHQSGVARCGDTAVLHQRLVEHLAERWQMPDEGIWEVRGERRHFVHSKVMAWAVVDRTIRLVEAGALDAGLCALMELREAIRHEVCTRGFEP", "soluble on expression in E. coli": "not soluble"}
{"sequence": "MGHHHHHHSHMAFRQPNTKELKVIRKALSYYGSGDFLSHYALLVKEGEKKEVYGVSKELYGVIGELNPHYAGVKIGEVGRRFRFSLEGTFWLLRNSRNRVWVNERGEMLFLYGRDIFAGSVERASEFGENSIVFVCNRFDDVLGIGRSRHSSDELSNLPEDKVFVENLVDRGEYLRH", "soluble on expression in E. coli": "soluble"}
{"sequence": "MSDEWEQLTVELRKIPRGTEAAPQYLRHLMKMFVADFETAVSKRFDVKFWNKLKSMMDEITKAMENDRLVNHNVQNLAIGFLTDLSLLVHYHYEIPNYGNDISKQLTWTPDVFLNRKPIKSKKNSRVFMAYVLLRMGDLMRYKENYPKAQEYYEQSCRINPADGAVWNQLGLISSLGAKNLESVYFHTRALHATMEFPTASGGLTNIFKNFANRDISRPMPIKDLYLSCLGRIHFLLEIEDSSVHLQKIGEEAATSKEMIVPLMSVYKHLEDGTELEQRAVEYVKTIWCTAYRSLLKTLDDYKEESKKLADVPHLLHILALLLCAPKLLRGIEDQTEDEVTSICEWLLCANCDEKIKDSDAFGYFHCLQRIQYPLTRTQLAQKLVEIEDEDESKDSDQSTIPEEDQKSLSTDTSRIQNEDSEPESESESSDEEVLQRGRRRGRNPNLDESVETDEDEF", "soluble on expression in E. coli": "not soluble"}
{"sequence": "MDFMISHFCDEQNHQPLYKTRRQSISDSKNGPTLLSSSLPTNDECSDSDTENRLPPETELGNIEYKAKLVNPTTSRIQHLITQMKWRLREGQGEAIYEIGVEDGGIMSGLTDEELNDSLRTLRTMAQALGASMVILTEKDVTVKGSNSRRTVVEVLVRKVPESQQFIEVRLAVVGGCDVGKSTLCGVLTQGCLDDGNGKARIGIFRFPHEVRTGKTSSVCNDVIGFDNRGKLVNYAQNSLEEMVEKSSKLVTLIDLAGDAKYQKTTIHGLTGYTPHFACLVVAADRGITWATREHLGLIAALNIPMFVLITKMDLVDRQGLKKIIKDVSNLVAKAGMTAREKRVKTKRDAVKAAQELCVGSIVPVLAVSSVSGEGFRCLRTLLNCLSTAGTAESRIQLVGLPAFFTIEELYNVPHVGQVVGGMLSEGQLHEGADVLVGPMKDGTFEKITVGSIRRSRQAVGCVNPGEAASISLNLPDGVSLRRGMVLAEIDHQPPVCYEFTANLLLLCHSTKYICEGFQATVFIGSVCTTAIITHIDDADCIRPGKWAVVKMCFAYQPEVIREGSPIILRQGKTKGMGEVLKVFPCTQ", "soluble on expression in E. coli": "not soluble"}
{"sequence": "GQSAKEAIEAANADFVKAYNSKDAAGVASKYMDDAAAFPPDMARVDGRQNIQKLWQGAMDMGISELKLTTLDVQESGDFAFESGSFSLKAPGKDSKLVDAAGKYVVVWRKGQDGGWKLYRDIWNSDPAK", "soluble on expression in E. coli": "soluble"}
{"sequence": "MEVSKIRIHDLPEEERPRERLIKNGPESLSNAELLGIVLRTGSREENVISLCSRILMEYNIKQLSLANVSKLMQVNGIGKAKAAQIAAVFELARRLETFVEEPKRKISSPKDVYTLMYPKMREQKKEKFITLYLDTKNQILKEEVVSIGSLNASIVHPREVFKSALMESSASVIMVHNHPSGDPSPSREDIMVTEKLVEGGKLLGIDILDHIIIGDGRYVSLKDEGFVK", "soluble on expression in E. coli": "not soluble"}
{"sequence": "MSLKNTTIADVAAAADVSVTTVSRYLNGNYQKMSAATKQRIKETIATLHYAPKASARKMRQDHSQLIGVVVGDIANVFSSLLFKGIYDVLQPAGYDVLLMNANNTATTEHGELTRLAAQQVDGIILQPSAATAAAYAGLTIPTIIVDRQLPNSPLAQVLSSNFDASYQLGQHLREQGYRRLITVGRAVAPHTAQTDRLAGLTATGLSVIHLDMTSHGAPWLTQQLRQYQQAPDKPVIISLMGPLLFEILASLKAAHLHFPADVGLVSFDDWQWSQYVNDGIYLLQQQPALMGQLAATTLLHQLSTTPTTMTQYVPVAPVVKPSLEGHHHHHH", "soluble on expression in E. coli": "not soluble"}
{"sequence": "MGGIGRIGILGSGSWATALAKIILTSQPSINWFMRREEQAQGIKRTGRNPNYLRDAVFDPRKISFFTDSDLNSFFRASDVVVLVTPSPFIKSYLKRVRSSSMRDKLIINAIKGIVPDENVLVSEYLHDFCDVPNELIGVVSGPCHAEEVARERRSYLTVGCFDINKAKAMANVLRNDYVSCTTSQDVVGIEYASVLKNVYAIAAGICNGLQYGDNFQSVLMSNAIAEMNSFVNTVHLLEREITDSVYLGDLLVTAYSNYSRNRTFGNMIGKGYSVKSAQMEMEMIAEGYYGAKCVREVNKRYQVNMPIMNTVYEVLYEKRDAAEAITALTAHFK", "soluble on expression in E. coli": "not soluble"}
{"sequence": "MSWWQRAVIYQVYPRSFQDTNGDGVGDLEGIRRRLPYLKSLGVDALWLSPFYKSPMKDFGYDVADYCDVDPVFGTLQDFDRLLEEAHALGLKVLVDLVPNHTSSEHPWFLESRASRNSPKRDWYIWKDPAPDGGPPNNWQSFFGGPAWTLDEATGQYYLHLFLPEQPDLNWRNPEVREAIKEVMRFWLRRGVDGFRVDVLWLLGKDPLFRDEPGSPLWRPGLPDRARHEHLYTEDQPETYAYVREMRQVLDEFSEPGRERVMVGEIYLPLPRLVRYYAAGCHLPFNFSLVTEGLSDWRPENLARIVETYEGLLSRWDWPNWVLGNHDQPRLASRLGEPQARVAAMLLFTLRGTPTWYYGDELALPNGLIPPEKVQDPAALRQRDREPTAYHTLGRDPERTPMPWDASPYGGFSTVEPWLPLNPDYRTRNVAAQEKDPRSMLHLVKRLIALRKDPDLLYGAYRTYRAREGVYAYLRGEGWLVALNLTEKEKALELPRGGRVVLSTHLDREERVGERLFLRPDEGVAVRLD", "soluble on expression in E. coli": "soluble"}
{"sequence": "MPQQNYLDELTPAFTSLLAIKEASRCLLCHDAPCSQACPAQTDPGKFIRSIYFRNFKGAAETIRENNALGAVCARVCPTEKLCQSGCTRAGVDAPIDIGRLQRFVTDFEQQTGMEIYQPGTKTLGKVAIIGAGPAGLQASVTLTNQGYDVTIYEKEAHPGGWLRNGIPQFRLPQSVLDAEIARIEKMGVTIKCNNEVGNTLTLEQLKAENRAVLVTVGLSSGSGLPLFEHSDVEIAVDFLQRARQAQGDISIPQSALIIGGGDVAMDVASTLKVLGCQAVTCVAREELDEFPASEKEFTSARELGVSIIDGFTPVAVEGNKVTFKHVRLSGELTMAADKIILAVGQHARLDAFAELEPQRNTIKTQNYQTRDPQVFAAGDIVEGDKTVVYAVKTGKEAAEAIHHYLEGACSC", "soluble on expression in E. coli": "not soluble"}
